The target of the experiment is T1, His-DXO1 (Arabidopsis thaliana, UniProt Q8RY73 1-544).
T1 construct: also called His-tagged DXO1; source: E. coli BL21 Rosetta, purified (Ni-NTA); not shown: His6, N-terminal, kept
As to the kind of experiment: pull-down; GST pull-down: 2 ug GST-RNMT1 with His-DXO1 or His-cDXO1 on GST agarose beads, 20 mM Tris-HCl pH 7.5, 100 mM NaCl, 1 mM DTT, 1 mM EDTA, 1 h; in the presence of RNase A; eluted with 10 mM GSH; blots with anti-His and anti-GST. The settings on record: both partners purified.

T1 sequence (Q8RY73 whole entry): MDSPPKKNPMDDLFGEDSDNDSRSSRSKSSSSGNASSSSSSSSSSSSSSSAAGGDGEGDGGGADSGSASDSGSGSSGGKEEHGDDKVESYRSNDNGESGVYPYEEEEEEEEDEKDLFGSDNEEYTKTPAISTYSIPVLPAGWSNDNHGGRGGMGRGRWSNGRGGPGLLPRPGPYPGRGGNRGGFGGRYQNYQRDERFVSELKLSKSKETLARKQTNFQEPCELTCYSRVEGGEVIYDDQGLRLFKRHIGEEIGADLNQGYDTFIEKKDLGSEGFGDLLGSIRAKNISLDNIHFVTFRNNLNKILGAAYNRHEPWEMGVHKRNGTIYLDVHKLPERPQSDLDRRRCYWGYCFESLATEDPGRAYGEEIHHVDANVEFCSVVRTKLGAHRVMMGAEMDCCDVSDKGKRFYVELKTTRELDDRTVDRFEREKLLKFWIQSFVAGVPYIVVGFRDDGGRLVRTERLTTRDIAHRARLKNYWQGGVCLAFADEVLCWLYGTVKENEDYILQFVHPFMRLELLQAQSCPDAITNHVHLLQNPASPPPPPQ

B1: GST-RNMT1 (natural protein, Arabidopsis thaliana, UniProt Q9LHQ7 1-370, looked up)
chain: MKRGFSDSPSSSAPPPSSRFKSNPEGDSQFLEDETTKNFARKVADHYSRRTNQTLEEREASPIIHLKKLNNWIKSVLIQLYARPDDAVLDLACGKGGDLIKWDKARIGYYVGIDIAEGSIEDCRTRYNGDADHHQRRKKFSFPSRLLCGDCFEVELDKILEEDAPFDICSCQFAMHYSWTTEARARRALANVSALLRPGGVFIGTMPDANVIIKKLREAEGLEIGNSVYWIRFGEEYSQKKFKSSSPFGIEYVFHLEDAVDCPEWIVPFNVFKSLAEEYDLELVFVKNSHEFVHEYMKKPEFVELMRRLGALGDGSNDQSTLSADEWEAAYLYLSFVLRKRGESDGARRSGRRKNGKMNLSKDDVLYIDS
notes: The methods name a 'GST-DXO1' fusion in pGEX-4T-1 and RNMT1 in pET28a, while results, legend and pull-down methods use GST-RNMT1; In the functional rows the RNMT1 was the recombinant protein from pET28a (6X His); also called GST-tagged RNMT1; source: E. coli BL21 Rosetta, purified (GST agarose beads); not shown: GST, N-terminal, kept
Turning to B1, the binding result was “binds”.

(Values after publication PMC9839713, “Arabidopsis DXO1 activates RNMT1 to methylate the mRNA guanosine cap” (Nature Communications, 2023).)
